Reference: patent US20200181259A1 (Innovent, published 2020)

How the values were obtained:
[1] = target: T1, Human CD47-Fc (human, UniProt Q08722 19-139, limits assumed); experiment: bio-light interferometry (ForteBio), IgG1 on AHQ tip, human CD47-Fc 100 nM in solution, bivalent
T1 construct: the whole entry is named here; also called human CD47 (hCD47); CD47 antigen; not shown: Fc part

[2] = target: T2, mouse CD47-Fc (mouse, UniProt Q61735 19-140, limits assumed); experiment: bio-light interferometry (ForteBio), IgG1 on AHQ tip, mouse CD47-Fc in solution, bivalent
T2 construct: not shown: Fc part
T2 sequence (looked up): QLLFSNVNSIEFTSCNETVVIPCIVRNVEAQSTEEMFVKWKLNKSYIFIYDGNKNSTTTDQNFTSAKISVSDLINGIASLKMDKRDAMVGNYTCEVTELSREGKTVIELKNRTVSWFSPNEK

[3] = target: T3, human CD47 overexpressed on CHO cells (human, UniProt Q08722 19-292); experiment: flow cytometry on CHO-hCD47 cells, PE anti-human IgG
T3 construct: CHO cells transfected with pCHO1.0 bearing a human CD47 cDNA (Sino Biological); also called hCD47; CHO-hCD47 cells
Method: Then the cells were washed at least two times and incubated with a secondary antibody (PE-labelled goat anti-human IgG antibody, Southern Biotech, final concentration of 5 μg/ml) in PBS with 0.1% BSA on ice for 30 min (in dark). The cells were washed at least two times and analyzed by flow cytometry. Flow cytometry was performed on Accuri C6 System (BD Biosciences) and a concentration-dependent graph was fitted with GraphPad, according to MFI of the cells.

[4] = target: T1, Human CD47-Fc; experiment: bio-light interferometry (ForteBio), human CD47-Fc on AHQ tip, Fab 100 nM in solution, monovalent
[5] = target: T2, mouse CD47-Fc; experiment: bio-light interferometry (ForteBio), IgG1 on AHQ tip, mouse CD47-Fc 100 nM in solution, bivalent
Method: In brief, Sensors were equilibrated off-line in assay buffer for 30 min and then tested on-line for 60 sec to establish the base line. The purified antibody obtained as described above was loaded on-line onto AHQ sensor (ForteBio) to perform ForteBio affinity measurement. Then, the sensor loaded with the antibody was exposed to 100 nM of CD47 antigen for 5 min, followed by transferring the sensor into the assay buffer for 5 min to measure the dissociation rate. A kinetics analysis was performed using the 1:1 binding model.

[6] = target: T4, cynomolgus CD47-Fc (cynomolgus, UniProt A0A2K5X523 19-139); experiment: bio-light interferometry (ForteBio), IgG1 on AHQ tip, cynomolgus CD47-Fc 100 nM in solution, bivalent
T4 construct: not shown: Fc part

[7] = target: T3, human CD47 overexpressed on CHO cells; experiment: flow cytometry competition on CHO-hCD47 cells against 200 nM mouse Fc-labelled SIRPα
Method: Then the cells were washed 3 times and subsequently incubated with a secondary antibody, goat-anti-mouse IgG-APC (Allophycocyanin) (Biolegend), in PBS with 0.1% BSA on ice for 30 min (in dark). Cells were washed 3 times. Flow cytometry assay was performed on Accuri C6 System (BD Biosciences) and MFI was calculated with C6 software.

Binder | Kd [1] [nM] | binding result [2] | EC50 [3] [nM] | Kd [4] [nM] | IC50 [7] [nM] | also measured
ADI-30794 in IgG1 format produced in yeast cells (antibody, V domains shown, also called ADI 30794-IgG1) VH: EVQLLESGGGLVQPGGSLRLSCAASGFTFGNYAMSWVRQAPGKGLEWVSAISGSGGKTYYADSVKGRFTISRDNSKNTLYLQMNSLRAEDTAVYYCAKTAIYYGFDLWGRGTLVTVSS VL: DIQLTQSPSSVSASVGDRVTITCRASQGISSWLAWYQQKPGKAPKLLIYGASSLQSGVPSRFSGSGSGTDFTLTISSLQPEDFATYYCQQKNPFPPFFGGGTKVEIKR | 0.562 | no binding (tested: 100 nM) | 3.7 | – | – | –
ADI-30793 in Fab format (Fab, V domains shown) VH: EVQLLESGGGLVQPGGSLRLSCAASGFTFDSYAMTWVRQAPGKGLEWVSVISGSGGKTYYADSVKGRFTISRDNSKNTLYLQMNSLRAEDTAVYYCAKTHLYYGFDLWGRGTLVTVSS VL: DIQLTQSPSSVSASVGDRVTITCRASQGISSWLAWYQQKPGKAPKLLIYGASSLQSGVPSRFSGSGSGTDFTLTISSLQPEDFATYYCQQKNPFPPFFGGGTKVEIKR | – | – | – | 9.34 | – | –
ADI-26591 in IgG1 format, expressed in yeast (antibody, V domains shown, also called ADI 26591-IgG1) VH: not shown VL: DIQLTQSPSSVSASVGDRVTITCRASQGISSWLAWYQQKPGKAPKLLIYGASSLQSGVPSRFSGSGSGTDFTLTISSLQPEDFATYYCQQKNPFPPTFGGGTKVEIKR | 5.38 | no binding (tested: 100 nM) | 3.77 | – | – | Kd [6]: 3.39 nM
ADI-26624 in Fab format (Fab, V domains shown) VH: QVQLQESGPGLVKPSETLSLTCTVSGGSISSYYWSWIRQPPGKGLEWIGYIYYSGSTNYNPSLKSRVTISVDTSKNQFSLKLSSVTAADTAVYYCARGKSAFDPWGQGTLVTVSS VL: DIQMTQSPSSVSASVGDRVTITCRASQGISRWLAWYQQKPGKAPKLLIYAASSLQSGVPSRFSGSGSGTDFTLTISSLQPEDFATYYCQQADLHPPLTFGGGTKVEIKR | – | – | – | 65.8 | – | –
ADI-29336 in Fab format (Fab, V domains shown) VH: QVQLQESGPGLVKPSETLSLTCTVSGGSISNYYWSWIRQPPGKGLEWIGTIYYSGSTRYNPSLKSRVTISVDTSKNQFSLKLSSVTAADTAVYYCARGKSAFNPWGQGTLVTVSS VL: DIQMTQSPSSVSASVGDRVTITCRASQGISRWLAWYQQKPGKAPKLLIYAASSLQSGVPSRFSGSGSGTDFTLTISSLQPEDFATYYCQQADLHPPLTFGGGTKVEIKR | – | – | – | 1.32 | – | –
ADI-26624 in IgG1 format produced in yeast cells (antibody, also called ADI26624-IgG1) heavy: not shown light: DIQMTQSPSSVSASVGDRVTITCRASQGISRWLAWYQQKPGKAPKLLIYAASSLQSGVPSRFSGSGSGTDFTLTISSLQPEDFATYYCQQADLHPPLTFGGGTKVEIKRTVAAPSVFIFPPSDEQLKSGTASVVCLLNNFYPREAKVQWKVDNALQSGNSQESVTEQDSKDSTYSLSSTLTLSKADYEKHKVYACEVTHQGLSSPVTKSFNRGEC | 1.05 | no binding (tested: 100 nM) | 2.25 | – | 11.2 | –
ADI-26624 in IgG4 format produced in CHO cells (antibody, also called ADI26624-IgG4) heavy: not shown light: DIQMTQSPSSVSASVGDRVTITCRASQGISRWLAWYQQKPGKAPKLLIYAASSLQSGVPSRFSGSGSGTDFTLTISSLQPEDFATYYCQQADLHPPLTFGGGTKVEIKRTVAAPSVFIFPPSDEQLKSGTASVVCLLNNFYPREAKVQWKVDNALQSGNSQESVTEQDSKDSTYSLSSTLTLSKADYEKHKVYACEVTHQGLSSPVTKSFNRGEC | – | – | – | – | 1.04 | –

Continued, in another order:

Kd [1] [nM] | binding result [2] | EC50 [3] [nM] | Kd [4] [nM] | IC50 [7] [nM] | Binder | also measured
– | – | – | 218 | – | ADI-29371 in Fab format (Fab, V domains shown) VH: EVQLLESGGGLVQPGGSLRLSCAASGFTFGNYAMSWVRQAPGKGLEWVSMISGGGSTYYADSVKGRFTISRDNSKNTLYLQMNSLRAEDTAVYYCAKTPIYYGFDLWGRGTLVTVSS VL: DIQLTQSPSSVSASVGDRVTITCRASQGISSWLAWYQQKPGKAPKLLIYGASSLQSGVPSRFSGSGSGTDFTLTISSLQPEDFATYYCQQKNPFPPTFGGGTKVEIKR | –
– | – | – | 4.62 | – | ADI-29341 in Fab format (Fab, V domains shown) VH: QVQLQESGPGLVKPSETLSLTCTVSGGSIEHYYWSWIRQPPGKGLEWIGYIYYSGSTNYNPSLKSRVTISVDTSKNQFSLKLSSVTAADTAVYYCARGKTGSAAWGQGTLVTVSS VL: DIQMTQSPSSVSASVGDRVTITCRASQGISRWLAWYQQKPGKAPKLLIYAASSLQSGVPSRFSGSGSGTDFTLTISSLQPEDFATYYCQQTVSFPITFGGGTKVEIKR | –
0.632 | – | 2.92 | – | – | ADI-30793 in IgG1 format produced in yeast cells (antibody, V domains shown, also called ADI 30793-IgG1) VH: EVQLLESGGGLVQPGGSLRLSCAASGFTFDSYAMTWVRQAPGKGLEWVSVISGSGGKTYYADSVKGRFTISRDNSKNTLYLQMNSLRAEDTAVYYCAKTHLYYGFDLWGRGTLVTVSS VL: DIQLTQSPSSVSASVGDRVTITCRASQGISSWLAWYQQKPGKAPKLLIYGASSLQSGVPSRFSGSGSGTDFTLTISSLQPEDFATYYCQQKNPFPPFFGGGTKVEIKR | Kd [5]: 4.57 nM; Kd [6]: 0.584 nM
– | – | – | 3.13 | – | ADI-30794 in Fab format (Fab, V domains shown) VH: EVQLLESGGGLVQPGGSLRLSCAASGFTFGNYAMSWVRQAPGKGLEWVSAISGSGGKTYYADSVKGRFTISRDNSKNTLYLQMNSLRAEDTAVYYCAKTAIYYGFDLWGRGTLVTVSS VL: DIQLTQSPSSVSASVGDRVTITCRASQGISSWLAWYQQKPGKAPKLLIYGASSLQSGVPSRFSGSGSGTDFTLTISSLQPEDFATYYCQQKNPFPPFFGGGTKVEIKR | –
0.501 | no binding (tested: 100 nM) | 3.34 | – | 2.48 | ADI-29341 in IgG1 format produced in yeast cells (antibody, also called ADI29341-IgG1) heavy: not shown light: DIQMTQSPSSVSASVGDRVTITCRASQGISRWLAWYQQKPGKAPKLLIYAASSLQSGVPSRFSGSGSGTDFTLTISSLQPEDFATYYCQQTVSFPITFGGGTKVEIKRTVAAPSVFIFPPSDEQLKSGTASVVCLLNNFYPREAKVQWKVDNALQSGNSQESVTEQDSKDSTYSLSSTLTLSKADYEKHKVYACEVTHQGLSSPVTKSFNRGEC | –
– | – | 1.89 | – | 0.604 | ADI-29341 in IgG4 format produced in CHO cells (antibody, also called ADI29341-IgG4) heavy: not shown light: DIQMTQSPSSVSASVGDRVTITCRASQGISRWLAWYQQKPGKAPKLLIYAASSLQSGVPSRFSGSGSGTDFTLTISSLQPEDFATYYCQQTVSFPITFGGGTKVEIKRTVAAPSVFIFPPSDEQLKSGTASVVCLLNNFYPREAKVQWKVDNALQSGNSQESVTEQDSKDSTYSLSSTLTLSKADYEKHKVYACEVTHQGLSSPVTKSFNRGEC | –
– | – | 2.31 | – | – | ADI-29371 in IgG4 format produced in CHO cells (antibody, also called ADI 29371-IgG4) heavy: not shown light: DIQLTQSPSSVSASVGDRVTITCRASQGISSWLAWYQQKPGKAPKLLIYGASSLQSGVPSRFSGSGSGTDFTLTISSLQPEDFATYYCQQKNPFPPTFGGGTKVEIKRTVAAPSVFIFPPSDEQLKSGTASVVCLLNNFYPREAKVQWKVDNALQSGNSQESVTEQDSKDSTYSLSSTLTLSKADYEKHKVYACEVTHQGLSSPVTKSFNRGEC | –
1.95 | no binding (tested: 100 nM) | 2.13 | – | – | ADI-29371 in IgG1 format produced in yeast cells (antibody, also called ADI 29371-IgG1) heavy: not shown light: DIQLTQSPSSVSASVGDRVTITCRASQGISSWLAWYQQKPGKAPKLLIYGASSLQSGVPSRFSGSGSGTDFTLTISSLQPEDFATYYCQQKNPFPPTFGGGTKVEIKRTVAAPSVFIFPPSDEQLKSGTASVVCLLNNFYPREAKVQWKVDNALQSGNSQESVTEQDSKDSTYSLSSTLTLSKADYEKHKVYACEVTHQGLSSPVTKSFNRGEC | Kd [6]: 1.41 nM
0.477 | no binding (tested: 100 nM) | 6.72 | – | 8.55 | ADI-29336 in IgG1 format produced in yeast cells (antibody, also called ADI29336-IgG1) heavy: not shown light: DIQMTQSPSSVSASVGDRVTITCRASQGISRWLAWYQQKPGKAPKLLIYAASSLQSGVPSRFSGSGSGTDFTLTISSLQPEDFATYYCQQADLHPPLTFGGGTKVEIKRTVAAPSVFIFPPSDEQLKSGTASVVCLLNNFYPREAKVQWKVDNALQSGNSQESVTEQDSKDSTYSLSSTLTLSKADYEKHKVYACEVTHQGLSSPVTKSFNRGEC | Kd [6]: 0.544 nM
– | – | 2.48 | – | 1.39 | ADI-29336 in IgG4 format produced in CHO cells (antibody, also called ADI29336-IgG4) heavy: not shown light: DIQMTQSPSSVSASVGDRVTITCRASQGISRWLAWYQQKPGKAPKLLIYAASSLQSGVPSRFSGSGSGTDFTLTISSLQPEDFATYYCQQADLHPPLTFGGGTKVEIKRTVAAPSVFIFPPSDEQLKSGTASVVCLLNNFYPREAKVQWKVDNALQSGNSQESVTEQDSKDSTYSLSSTLTLSKADYEKHKVYACEVTHQGLSSPVTKSFNRGEC | –
